From US20160281104A1 (KOREA ATOMIC ENERGY RESEARCH INSTITUTE, published 2016)

Biological target: the molecule itself
Test: size exclusion chromatography (Superdex 200) and native PAGE; self-association

B1: alkyl hydroperoxide reductase subunit F (AhpF) protein of Pseudomonas aeruginosa (enzyme)
chain: MLDANLKTQLKAYLEKVSQPFEIVASLDDSDKSRELLGLLQDIVGLTDKITLKTDGSDARKPSFSLNRPGADIGLRFAGIPMGHEFTSLVLALLQVGGHPSKLDADVIEQVKGIEGTFEFETYFSLSCQNCPDVVQALNLMAVLNPNIRHVAIDGALFQDEVEARQIMSVPSIYLNGEVFGQGRMGVEEILAKIDTGAAARDAEKLTARDAFDVLVVGGGPAGAAAAIYAARKGIRTGVAAERFGGQVLDTMAIENFISVQETEGPKLARALEEHVRHYEVDIMNLQRASKLVPAKNAGELHEVRFESGGSLKAKTLILATGARWREMGVPGEQEYKAKGVCFCPHCDGPLFKGKRVAVIGGGNSGVEAAIDLAGIVAHVTLLEFDSKLRADAVLQRKLYSLPNVEVITSALTSEVKGDGQKVTGLVYKDRNSEEFKSIELEGIFVQIGLLPNTEWLKGSVELSPRGEIIVDARGETSLPGIFAAGDVTTVPYKQIVIAVGEGAKASLSAFDHLIRTSAPE
notes: Recombinant protein cloned from P. aeruginosa PAO1 genomic DNA and expressed from pET28a in E. coli BL21(DE3); It was purified on Ni-NTA and released from the resin with thrombin, so the His tag was cleaved; also called PaAhpF; AhpF(PA)
B1: binds.
